Source: patent US8349318B2, “Use of specifically engineered enzymes to enhance the efficacy of prodrugs” (The Board of Trustees of the University of Illinois, priority 2008, dated 2013)

What was measured:
[1] = test system: T1, Cc1cn([C@@H]2C[C@@H](O)[C@H](CO)O2)c(=O)[nH]c1=O; experiment: Kinetic assay of nucleoside phosphorylation by R104Q-D133A dCK; assay type: biochemical, human; details: other: nucleoside 200 uM, 1 mM ATP
T1 construct: made in house

[2] = test system: Nc1nc2c(ncn2[C@H]2C[C@H](O)[C@@H](CO)O2)c(=O)[nH]1; experiment: purified protein, by the assay type; details: other: Table 9; pH 7.5; 37.0 °C
[3] = test system: Nc1ccn([C@@H]2O[C@H](CO)[C@@H](O)C2(F)F)c(=O)n1; experiment: purified protein, by the assay type; details: other: Table 9; pH 7.5; 37.0 °C
[4] = test system: Cc1cn([C@@H]2C[C@@H](O)[C@H](CO)O2)c(=O)[nH]c1=O; experiment: purified protein, by the assay type; details: other: Table 9; pH 7.5; 37.0 °C

Chain of Wild Type dCK (Homo sapiens) (chain, as listed by the source): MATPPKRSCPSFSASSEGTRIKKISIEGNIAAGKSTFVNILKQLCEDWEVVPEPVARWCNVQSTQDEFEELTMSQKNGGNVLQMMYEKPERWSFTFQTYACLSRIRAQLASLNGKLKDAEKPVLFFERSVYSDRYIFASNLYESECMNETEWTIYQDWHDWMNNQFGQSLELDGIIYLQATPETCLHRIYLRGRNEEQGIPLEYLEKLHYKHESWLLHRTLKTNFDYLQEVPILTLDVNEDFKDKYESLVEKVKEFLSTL
Chain of dCK R104L/D133A (Homo sapiens; D133A/R104L) (chain, as listed by the source R104L D133A D133A R104L): as the sequence (chain, as listed by the source) above, with R104L, D133A counted along it
Chain of R104Q-D133A dCK (Homo sapiens; D133A/R104Q) (chain, as listed by the source R104Q D133A D133A R104Q): as the sequence (chain, as listed by the source) above, with R104Q, D133A counted along it

| Substance | kcat [1] [s⁻¹] | Km [2] [µM] | kcat [2] [s⁻¹] | Km [3] [µM] | kcat [3] [s⁻¹] | Km [4] [µM] | kcat [4] [s⁻¹] |
| --- | --- | --- | --- | --- | --- | --- | --- |
| R104Q-D133A dCK (Homo sapiens; D133A/R104Q) | 0.24 | – | – | – | – | – | – |
| dCK R104L/D133A (Homo sapiens; D133A/R104L) | – | 2266 ± 823 | 3.66 ± 0.01 | 33.8 ± 5.3 | 2.01 ± 0.08 | 17.8 ± 1.6 | 1.33 ± 0.01 |
| Wild Type dCK (Homo sapiens) | – | 231.0 ± 20.0 | 2.60 ± 0.10 | 16.1 ± 3.5 | 0.39 ± 0.03 | – | – |
